Here are results for 2 molecules from paper PMC8226839, “New Perspectives in the Antimicrobial Activity of the Amphibian Temporin B: Peptide Analogs Are Effective Inhibitors of Candida albicans Growth” (Journal of Fungi, 2021).

The assay relates to C. albicans. Put plainly: Broth microdilution, impact of protease inactivation conditions (growth %). Format: cell-based, Candida albicans.

B1: Proteinase K: protease, applied alone as control after thermal inactivation (protein, UniProt P06873 106-384, looked up)
Proteinase K: AAQTNAPWGLARISSTSPGTSTYYYDESAGQGSCVYVIDTGIEASHPEFEGRAQMVKTYYYSSRDGNGHGTHCAGTVGSRTYGVAKKTQLFGVKVLDDNGSGQYSTIIAGMDFVASDKNNRNCPKGVVASLSLGGGYSSSVNSAAARLQSSGVMVAVAAGNNNADARNYSPASEPSVCTVGASDRYDRRSSFSNYGSVLDIFGPGTSILSTWIGGSTRSISGTSMATPHVAGLAAYLMTLGKTTAASACRYIADTANKGDLSNIPFGTVNLLAYNNYQA
modifications: heat-inactivated
For B1, under “0.125 µM protease alone + 100 °C, 15 min”, the “Growth [%]” value came to 86 ± 4.5%.

B2: Trypsin: protease, applied alone as control after neutralization with 1.25% FCS (protein, UniProt P00760 24-246, looked up)
Serine protease 1: IVGGYTCGANTVPYQVSLNSGYHFCGGSLINSQWVVSAAHCYKSGIQVRLGEDNINVVEGNEQFISASKSIVHPSYNSNTLNNDIMLIKLKSAASLNSRVASISLPTSCASAGTQCLISGWGNTKSSGTSYPDVLKCLKAPILSDSSCKSAYPGQITSNMFCAGYLEGGKDSCQGDSGGPVVCSGKLQGIVSWGSGCAQKNKPGVYTKVCNYVSWIKQTIASN
As for B2, the “Growth [%]” value (0.125 µM protease alone + 1.25 % FCS) stood at 136.7 ± 14%.
